{"source": "paper PMC12618784", "about": "“The ARVC-5-associated protein TMEM43 controls mitochondrial energy metabolism by stabilising ER-mitochondrial contact sites” (Cellular and Molecular Life Sciences: CMLS, 2025)", "binders": {"B1": {"name": "Porin (natural protein, UniProt Q94920 1-282, looked up)", "chain": "MAPPSYSDLGKQARDIFSKGYNFGLWKLDLKTKTSSGIEFNTAGHSNQESGKVFGSLETKYKVKDYGLTLTEKWNTDNTLFTEVAVQDQLLEGLKLSLEGNFAPQSGNKNGKFKVAYGHENVKADSDVNIDLKGPLINASAVLGYQGWLAGYQTAFDTQQSKLTTNNFALGYTTKDFVLHTAVNDGQEFSGSIFQRTSDKLDVGVQLSWASGTSNTKFAIGAKYQLDDDASVRAKVNNASQVGLGYQQKLRDGVTLTLSTLVDGKNFNAGGHKIGVGLELEA", "notes": "Porin, the fly homologue of the vertebrate voltage-dependent anion channels (VDACs), outer mitochondrial membrane; also called Porin/VDAC; fly homologue of the vertebrate voltage-dependent anion channels; source: endogenous, Drosophila third-instar larval extract"}}, "target": "T1, Dmel\\Tmem43wt::TurboID (Drosophila, UniProt Q9VSB9 1-376)", "T1 construct": "Dmel\\Tmem43 (CG8111), the Drosophila homologue of human TMEM43, wild type; Generated in this study; cloning details are available upon request; also called UAS-CG8111^WT-TurboID; source: transgenic Drosophila third-instar larvae, expressed in muscle with mef2-Gal4, in vivo and in lysate", "T1 sequence (looked up)": "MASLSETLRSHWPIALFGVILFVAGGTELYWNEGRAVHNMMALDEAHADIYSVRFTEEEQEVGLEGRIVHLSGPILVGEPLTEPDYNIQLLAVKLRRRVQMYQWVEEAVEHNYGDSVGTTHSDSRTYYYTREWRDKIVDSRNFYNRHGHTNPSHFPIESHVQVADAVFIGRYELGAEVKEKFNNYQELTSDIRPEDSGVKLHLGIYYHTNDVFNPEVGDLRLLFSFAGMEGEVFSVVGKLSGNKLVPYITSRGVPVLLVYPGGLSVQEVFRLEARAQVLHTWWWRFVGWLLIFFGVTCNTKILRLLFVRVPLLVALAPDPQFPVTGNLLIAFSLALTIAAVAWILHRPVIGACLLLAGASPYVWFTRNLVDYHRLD", "test": "proximity labelling; TurboID fusions expressed in muscle of third-instar larvae (mef2-Gal4); biotinylated proteins purified on streptavidin microbeads and identified by mass spectrometry", "details": "partners not purified"}
{"binder": "B1", "values": [{"measurement": "fold stronger interaction than the p.S333L mutant (relative amounts of biotinylated protein)", "value": "~8", "unit": "fold"}]}
